# Data: patent US20140087995A1 (published 2014)
# Numbered stars: 1 amine (or outer) side, 2 acyl side, 3 side chain; on linkers, the order of the positions; unused ones are H or OH. Bridge positions count the residues as written; N and C are the ends. Side chains are listed from the residue outwards. Ends that are not written are not given here. * marks the point of attachment. C20 diacid = O=C(O)CCCCCCCCCCCCCCCCCCC(=O)*; γGlu = O=C(O)[C@H](CCC(=O)[*:2])N[*:1]; AEEA = NCCOCCOCC(=O)O
# T1: human amylin receptor (amylin 3(a) receptor: human calcitonin receptor plus RAMP-3) (human, UniProt P30988 25-474; O60896 24-148, limits assumed)
# T1 sequence (looked up) 1: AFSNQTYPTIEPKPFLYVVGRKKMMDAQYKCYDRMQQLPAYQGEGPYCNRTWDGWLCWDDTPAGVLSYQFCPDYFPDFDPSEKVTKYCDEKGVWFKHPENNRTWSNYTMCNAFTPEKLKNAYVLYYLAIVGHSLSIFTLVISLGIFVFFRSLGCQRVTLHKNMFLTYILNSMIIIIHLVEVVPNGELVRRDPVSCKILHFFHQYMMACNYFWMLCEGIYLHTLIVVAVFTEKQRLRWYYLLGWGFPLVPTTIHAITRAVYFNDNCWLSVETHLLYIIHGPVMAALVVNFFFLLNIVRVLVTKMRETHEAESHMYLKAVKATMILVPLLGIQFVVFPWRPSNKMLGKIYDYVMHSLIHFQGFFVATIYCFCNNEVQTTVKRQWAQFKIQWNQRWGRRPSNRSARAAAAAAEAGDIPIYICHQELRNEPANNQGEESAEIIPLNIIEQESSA
# T1 sequence (looked up) 2: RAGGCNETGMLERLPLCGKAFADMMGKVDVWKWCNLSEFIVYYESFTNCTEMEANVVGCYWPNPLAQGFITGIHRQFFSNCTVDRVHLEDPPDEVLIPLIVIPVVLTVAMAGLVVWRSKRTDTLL
# T2: human calcitonin receptor (human, UniProt P30988 25-474)
# T2 sequence (looked up): T1 sequence (looked up) 1
# T3: human calcitonin receptor (human, UniProt P30988 25-474)
# T3 construct: whole, on cells; membranes of stably transfected BHK cells (Assay VII); also called hCTR; hCT
# T3 sequence (looked up): T1 sequence (looked up) 1
# T4: human amylin receptor (amylin 3(a) receptor: human calcitonin receptor with RAMP-3) (human, UniProt P30988 25-474; O60896 24-148)
# T4 sequence (looked up) 1: T1 sequence (looked up) 1
# T4 sequence (looked up) 2: T1 sequence (looked up) 2
# T5: human calcitonin receptor (human, UniProt P30988 25-474)
# T5 sequence (looked up): T1 sequence (looked up) 1
# B1: N^ε-[2-[2-[2-[[(4S)-4-carboxy-4-(19-carboxynonadecanoylamino)butanoyl]amino]ethoxy]ethoxy]acetyl]Lys[Arg1,Arg17,Pro21,Pro27,His35]-h-amylin (peptide)
# peptide: K([AEEA-γGlu-C20 diacid])RCNTATCATQRLANFLRHSSPNFGAIPSSTNVGSHTY-NH2
# modifications: disulfide 3-8; N-terminus assumed
# SMILES: CC[C@H](C)[C@H](NC(=O)[C@H](C)NC(=O)CNC(=O)[C@H](Cc1ccccc1)NC(=O)[C@H](CC(N)=O)NC(=O)[C@@H]1CCCN1C(=O)[C@H](CO)NC(=O)[C@H](CO)NC(=O)[C@H](Cc1c[nH]cn1)NC(=O)[C@H](CCCNC(=N)N)NC(=O)[C@H](CC(C)C)NC(=O)[C@H](Cc1ccccc1)NC(=O)[C@H](CC(N)=O)NC(=O)[C@H](C)NC(=O)[C@H](CC(C)C)NC(=O)[C@H](CCCNC(=N)N)NC(=O)[C@H](CCC(N)=O)NC(=O)[C@@H](NC(=O)[C@H](C)NC(=O)[C@@H]1CSSC[C@H](NC(=O)[C@H](CCCNC(=N)N)NC(=O)[C@@H](N)CCCCNC(=O)COCCOCCNC(=O)CC[C@H](NC(=O)CCCCCCCCCCCCCCCCCCC(=O)O)C(=O)O)C(=O)N[C@@H](CC(N)=O)C(=O)N[C@@H]([C@@H](C)O)C(=O)N[C@@H](C)C(=O)N[C@@H]([C@@H](C)O)C(=O)N1)[C@@H](C)O)C(=O)N1CCC[C@H]1C(=O)N[C@@H](CO)C(=O)N[C@@H](CO)C(=O)N[C@H](C(=O)N[C@@H](CC(N)=O)C(=O)N[C@H](C(=O)NCC(=O)N[C@@H](CO)C(=O)N[C@@H](Cc1c[nH]cn1)C(=O)N[C@H](C(=O)N[C@@H](Cc1ccc(O)cc1)C(N)=O)[C@@H](C)O)C(C)C)[C@@H](C)O
# notes: Synthetic acylated analogue of human amylin, extended by Lys at the N-terminus; also called compound 45
# B2: N^ε1-[(4S)-4-carboxy-4-(19-carboxynonadecanoylamino)butanoyl]-[Arg17,Pro21,Pro27]-h-amylin (peptide)
# peptide: K([γGlu-C20 diacid])CNTATCATQRLANFLRHSSPNFGAIPSSTNVGSNTY-NH2
# modifications: disulfide 2-7; N-terminus assumed
# SMILES: CC[C@H](C)[C@H](NC(=O)[C@H](C)NC(=O)CNC(=O)[C@H](Cc1ccccc1)NC(=O)[C@H](CC(N)=O)NC(=O)[C@@H]1CCCN1C(=O)[C@H](CO)NC(=O)[C@H](CO)NC(=O)[C@H](Cc1c[nH]cn1)NC(=O)[C@H](CCCNC(=N)N)NC(=O)[C@H](CC(C)C)NC(=O)[C@H](Cc1ccccc1)NC(=O)[C@H](CC(N)=O)NC(=O)[C@H](C)NC(=O)[C@H](CC(C)C)NC(=O)[C@H](CCCNC(=N)N)NC(=O)[C@H](CCC(N)=O)NC(=O)[C@@H](NC(=O)[C@H](C)NC(=O)[C@@H]1CSSC[C@H](NC(=O)[C@@H](N)CCCCNC(=O)CC[C@H](NC(=O)CCCCCCCCCCCCCCCCCCC(=O)O)C(=O)O)C(=O)N[C@@H](CC(N)=O)C(=O)N[C@@H]([C@@H](C)O)C(=O)N[C@@H](C)C(=O)N[C@@H]([C@@H](C)O)C(=O)N1)[C@@H](C)O)C(=O)N1CCC[C@H]1C(=O)N[C@@H](CO)C(=O)N[C@@H](CO)C(=O)N[C@H](C(=O)N[C@@H](CC(N)=O)C(=O)N[C@H](C(=O)NCC(=O)N[C@@H](CO)C(=O)N[C@@H](CC(N)=O)C(=O)N[C@H](C(=O)N[C@@H](Cc1ccc(O)cc1)C(N)=O)[C@@H](C)O)C(C)C)[C@@H](C)O
# notes: Synthetic acylated analogue of human amylin; also called compound 48
# B3: N^α1 N^α1-[(4S)-4-carboxy-4-[[(4S)-4-carboxy-4-(19-carboxynonadecanoylamino)butanoyl]amino]butanoyl]-[Glu14,Arg17,Pro21,Pro27]-h-amylin (peptide)
# peptide: {C20 diacid-γGlu-γGlu}-KCNTATCATQRLAEFLRHSSPNFGAIPSSTNVGSNTY-NH2
# modifications: disulfide 2-7 (inferred)
# notes: analogue of human amylin; the name is printed with N^α1 twice; also called compound 15
# B4: N^α1-[(4S)-4-carboxy-4-(19-carboxynonadecanoylamino)butanoyl]-[Glu14,Arg17,Pro21,Pro27]-h-amylin (peptide)
# peptide: KCNTATCATQRLAEFLRHSSPNFGAIPSSTNVGSNTY
# modifications: C20 diacid-gGlu on the alpha amino group of the N-terminal residue; disulfide bridge Cys2-Cys7; C-terminal amide
# notes: also called compound 9
# Target: T1, human amylin receptor (amylin 3(a) …)
# Assay: cell-based or functional assay
Ratio hCT/hAmylin funct.,hAmylin-R funct. EC50,Binder
17 ratio,594 pM,B1
17 ratio,116 pM,B2

# Target: T2, human calcitonin receptor
# Assay: cell-based or functional assay
row,hCTR funct. EC50,Binder
1,10100 pM,B1
2,1970 pM,B2

# Target: T3, human calcitonin receptor
# Assay: IC50 on human calcitonin receptor divided by IC50 on human amylin receptor (SPA competition)
# Description: The resulting pellet was resuspended, homogenized and centrifuged (20.000 rpm, 15 min) in a buffer containing 20 mM Na-HEPES and 0.1 mM EDTA (pH 7.4, buffer 2). The resulting pellet was resuspended in buffer 2 and protein concentration was measured (BCA protein Assay, Pierce). The homogenate was kept cold during the whole procedure. The membranes were kept at −80° C. until use. The assay was performed in a 384 well Optiplate (PerkinElmer) in a total volume of 40 ul. Membranes were mixed with SPA beads. Final concentration of membranes 35 ng/μL final and SPA beads was 0.05 mg/well. Test-compounds were dissolved in DMSO and further diluted in assay buffer (50 mM Hepes, pH 7.4, 1 mM CaCl2, 5 mM MgCl₂, 0.1% OA and 0.02% Tween20). […] The final mixture was incubated with shaking at 400 rpm for 120 min at 25° C. prior to centrifugation (1500 rpm, 10 min). Samples were analyzed on TopCounter™ (Packard). The IC₅₀ was calculated using (one site binding competition analysis) GraphPad Prism5 as a measure of receptor affinity.
# Membranes were prepared in the following way; the cells were rinsed with PBS and incubated with Versene for approximately 5 min before harvesting. The cells were flushed with PBS and the cell-suspension was centrifuged for 5 min at 1000 rpm. Cells were homogenized (Ultrathurrax) in a buffer containing 20 mM Na-HEPES and 10 mM EDTA (pH 7.4) and centrifuged at 20.000 rpm for 15 min. The resulting pellet was resuspended, homogenized and centrifuged (20.000 rpm, 15 min) in a buffer containing 20 mM Na-HEPES and 0.1 mM EDTA (pH 7.4, buffer 2). The resulting pellet was resuspended in buffer 2 and protein concentration was measured (BCA protein Assay, Pierce). The homogenate was kept cold during the whole procedure. The membranes were kept at −80° C. until use. Assay was performed in a 384 well Optiplate (PerkinElmer) in a total volume of 40 ul. Membranes were mixed with SPA beads.
row,Ratio hCT/hAmylin binding,Binder
1,26,B3

# Target: T4, human amylin receptor (amylin 3(a) …)
# Assay: cell-based or functional assay
row,hAmylin-R funct. EC50,Binder
1,175 pM,B4

# Target: T5, human calcitonin receptor
# Assay: cell-based or functional assay
Ratio hCT/hAmylin funct.,hCTR funct. EC50,Binder
7.4,1290 pM,B4
